Assays:
APC [1] = target: T1, APC (Homo sapiens, UniProt P04070); experiment: Inhibition of APC by recombinant mutant (Arg358)-α1-antitrypsin, time course; assay type: biochemical; conditions: 18 nM APC and 100 nM α1-AT
T1 construct: begins at amino acid residue position 158 and ends at 419; The light chain is 155 amino acid residues in length; tissue Factor IX concentrate from Immuno AG, Vienna; thrombin from Enzyme Research Laboratories
Procedure: Since the number of amino acid residues involved in protease-protease inhibitor complexes is likely to be higher than the number of residues of APC involved in the cleavage of a small chromogenic substrate such as S-2366, the effect of peptide-(390-404) and peptide-(317-331) on the time course of inhibition of APC by a larger pseudosubstrate, recombinant mutant (Arg^358)-α1 -antitrypsin (α1 -AT) was evaluated. […] Heeb et al., J. Biol. Chem. 265:2365-2369 (1990).
Kinetic studies of inhibition of APC were performed with the higher affinity mutant α1 -AT pseudo-substrate. […] The change in absorbance was measured over time as described in the amidolytic assay. […]
Since the number of amino acid residues involved in protease-protease inhibitor complexes is likely to be higher than the number of residues of APC involved in the cleavage of a small chromogenic substrate such as S-2366, the effect of anti-(390-404) antibody on the time course of inhibition of APC by a larger pseudo-substrate, such as recombinant mutant (Arg^358)-α1 -AT was evaluated. […] The change in absorbance was measured over time as described in the amidolytic assay. […]

APC [2] = target: T1, APC; conditions: Heeb et al. 1990; cited from earlier work

T1 sequence (P04070 212-461): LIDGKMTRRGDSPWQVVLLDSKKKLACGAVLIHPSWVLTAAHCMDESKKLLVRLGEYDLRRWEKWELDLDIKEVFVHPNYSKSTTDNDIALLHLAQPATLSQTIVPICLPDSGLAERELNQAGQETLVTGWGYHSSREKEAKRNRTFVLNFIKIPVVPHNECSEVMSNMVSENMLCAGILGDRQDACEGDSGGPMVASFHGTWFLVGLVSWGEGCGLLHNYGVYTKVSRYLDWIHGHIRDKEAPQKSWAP
T1 sequence (P04070 43-197): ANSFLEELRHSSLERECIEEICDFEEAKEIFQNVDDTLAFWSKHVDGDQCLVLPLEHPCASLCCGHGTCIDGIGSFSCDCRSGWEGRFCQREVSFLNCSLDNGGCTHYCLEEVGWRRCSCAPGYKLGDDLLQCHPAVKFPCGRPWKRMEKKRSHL

recombinant (Arg^358)α1 -AT: recombinant mutant α1-antitrypsin with Met358 substituted by Arg, pseudosubstrate inhibitor of APC (Transgene)
calculated half-life for APC (APC [1]): 2 min | increase in the association rate for APC by substitution of Met358 by Arg (APC [2]): over 4400 fold

Source: patent US5279956A, “Activated protein C polypeptides and anti-peptide antibodies, diagnostic methods and systems for inhibiting activated protein C” (The Scripps Research Institute, priority 1991, dated 1994)
